Article PMC5076530

How the values were obtained:
[1] = biological target: human insulin-like growth factor type I receptor (human); assay: radioligand binding; competition with human 125I-IGF-I on human IGF-1R in membranes of mouse embryonic fibroblasts (IGF-1R knock-out, transfected with human IGF-1R); non-linear regression, one-site fit; Kd of 125I-IGF-I set to 0.2 nM
[2] = biological target: human insulin receptor isoform A (human); assay: radioligand binding; competition with human 125I-insulin on IR-A in membranes of human IM-9 lymphocytes; non-linear regression, one-site fit, depletion of free ligand taken into account; Kd of 125I-insulin set to 0.3 nM
[3] = biological target: human insulin receptor isoform B (human); assay: radioligand binding; human IR-B in membranes of mouse embryonic fibroblasts (IGF-I receptor knock-out, solely expressing human IR-B); non-linear regression, one-site fit, depletion of free ligand taken into account

Kd [1] | Kd [2] | Kd [3] | Substance
1.33 nM | 16.8 nM | – | [N29,S39_PQ]IGF-II (ligand)
3.19 nM | 19.9 nM | – | [N29,R34_GS,S39_PQ]IGF-II (ligand)
2.29 nM | 3.03 nM | 43.7 nM | IGF-II (recombinant, with an additional glycine at the N terminus) (ligand)
4.57 nM | 10.3 nM | 108 nM | [N29]IGF-II (ligand)
5.68 nM | 23.4 nM | – | [R34_GS,S39_PQ]IGF-II (ligand)
5 nM | 38 nM | – | [S39_PQ]IGF-II (ligand)
4.13 nM | 15.4 nM | – | [R34_GS]IGF-II (ligand)
